The supplement of paper PMC12764529
± gives the half width of the 95% confidence interval.

Test: folding stability dG unfold from trypsin proteolysis; higher = more stable
Method in brief: (§1)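 Digests were run with trypsin and chymotrypsin at 11 concentrations in threefold dilutions, plus a no-protease condition, on designed mini-proteins in a PA-tagged cDNA display construct. The mini-proteins were under 80 residues, had no cysteine, and were kept only when AlphaFold2 dimer inter-PAE was above 15. After sequencing, Bayesian fitting of the counts gave K50, from which unfolding free energy was derived against a sequence-predicted unfolded-state K50 and a shared folded-state K50, per protease or combined.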

Sequence | folding stability dG unfold [kcal/mol]
SAGGPFYLRIKIVDEDGKEITYMFPAPADEAEEEIEELLPGWPLKIDEVERFPGEPGYIMVTIKIPPNSAGG [r13_832_TrROS] | 1.63 ± 0.051
SRLTVTSEVDPNGNSSTSTITYYDPSTGQPYTLTVTITKLPDGTYKVTITFPSNSTTTTFTLAPDETINLSA [r9_1220_JUSTAS] | 2.58 ± 0.2
SAGGMTRKLTFLGDIDKPVGLDGDIEIRPNPETGGFTIRVPPGVRIEAEVERLTDPPLALVTVTFLESAGGS [r16_122_TrMRF] | -0.118 ± 0.082
SPLERLLRAILNAPADTTIVVPLPDDLVAVIRIEPATTELDGVPYRFLVARIEIRNPDGVLLGELTLVLPLS [r1_386_TrMRF] | 3.88 ± 0.086
SMEIRIKEVNEDGYLVIEIRVLSEDGKELTPEEVEELAEEIAAELKEKFPDVKVTVERLEDGTVRIVVEPSA [r9_485_TrROS_Hall] | 3.19 ± 0.15
SAGGSAGGSAGGGSIVIENPEKGLTLTYDPATGNVTITFPGGERKVSPVGSIEKAKELLSAGGSAGGSAGGS [r10_849_JUSTAS] | 0.787 ± 0.059
SAGGMKVEIIRKDGKKVTLEGMTLEELLALLPEGEEYVIKVEVTVVDEKTKKKETVELTFTVPVEDLSAGGS [r16_806_TrROS_Hall] | 1.18 ± 0.047
SAGGMPVVIEIHVPKDKEEELARLIRRLLSELGAEVRVERFEDGIKVTAVLPDGTVIELHIVDDEKASAGGS [r16_406_TrMRF] | 4.29 ± 0.21
SGPGPEKIKEIIKKLFPNLKIESIEEDPATGKYTIKFPNGYTVEVEVPPDGTVTLTVKTPNSTTTFTVPESA [r9_304_JUSTAS] | 2.15 ± 0.086
SAGGGMTVTRTIYLPNMTEEEKKALAEEIAEEVREELEKRGYPVKEITVDVKFIPGKGIVIVTVTLKLSAGG [r13_212_JUSTAS] | 3.29 ± 0.09
SAGGPNWMQMEIWLPPGNPEKIEKIIRDKGWKVEDIKVKEVNPNNGWMRVTIYMPGPWPMDEIKEAVRSAGG [r13_725_TrROS] | 1.96 ± 0.11
SAGGSAIEPGQKVLVLFPEDGGLATLTFDPTTRTVEIEVGGERRTYPVDSLQDVLDELGAEVLSTDSAGGSA [r15_500_TrMRF] | 2.12 ± 0.037
SAMYLIKITIYNEETGEKIAELTLEVEEEDLEELLEEIRKKLNLPPGAKIKVEIVPLEPVVLPDGKLLKSAG [r14_297_TrROS_Hall] | 0.724 ± 0.12
SAGGSAMSEEALAEAERLVAERRAALEAAGVPVTVERVEVTVTVDTEVPTTNITVDLDVRLPDAPESAGGSA [r2_94_JUSTAS] | -0.0861 ± 0.034
SAGGKLAELKEILKKLGLPKIESIEEDPETGVLRFKASSSKPILVTVPVRSLGDGSRPIEVEIKSTNISAGG [r13_410_JUSTAS] | 0.227 ± 0.24
SPNFERYEHTIEIELPNGRRIKIDVEMYRPPDGNPWARIKIEVEDNNGEPKKKDIWMPMNDAEKAIEDLLSA [r9_189_TrROS] | 1.9 ± 0.14
SAGGMTEEEAKELAKELAEKYAEEKGIEEIELKIESVEKEGDKFTVKVKLTFPNEEKTITITIPKDLISAGG [r13_611_JUSTAS] | 3.34 ± 0.21
SAGGSAKITVEVVVRSLEELEALVKALAPPGMEVEVKIVSVERRTVEVNGEKREVLVVRVEIEVKPSAGGSA [r15_95_TrROS_Hall] | 4.61 ± 0.37
SAGGSAGGSAMTIEVTVPPEVPEEEAAERVARALRELFPIPEIKVSVERRPDGIIKVTVEGGSAGGSAGGSA [r18_1_TrMRF] | 0.81 ± 0.04
SAGGMIEIIPNPPIIIVRDASTNEISVYNIDAPPGSITRVELTSDGSILIYNPATGKVLVLPKSDIKSAGGS [r16_410_TrMRF] | 1.33 ± 0.043
SAGGSAGGSAPPLKIVIRIEFPDPNGKKQEYEIPADYPLEQVKDNAEEPFPGAKIENIEVVSAGGSAGGSAG [r3_60_TrROS] | 1.02 ± 0.057

Sequence | folding stability dG unfold [kcal/mol]
SAGMEEVEITIKITIEVPEGEEVTPEELAEALREAGFEIVEVKVEKTEDGRKRVTVEIKIRLTPEELEKSAG [r5_167_TrROS_Hall] | 2.31 ± 0.2
SAPDVVVVPIKIPPGEMSPSDMIEMIEQAFDQFNWPITPDRIEKLVDKAMKNGDSIWAVIRYLREEGWLSAG [r14_364_TrROS] | 2.63 ± 0.049
SKKIIKIKIEVIFPKTKKKIEIEIEMTEEEAKKLAEELKKKFKDEKVEVKIVKIEPLPPKKKKKVSKKKKSA [r9_14_TrROS_Hall] | 1.52 ± 0.099
PVKVIEIRVEDPEKTAEEILAELRKKLPEEVKELRLFIVTPDGRVREIEPGETLADLLKPGDTVRIVVVERS [r1_56_TrROS_Hall] | 4.81 ± 0.34
SAGKKIHITLTEDELREIAEALGLEPEDMTAEELAARLREEFPDVEVTIEKPPVEEREREERELAEEEKSAG [r5_264_TrROS_Hall] | 1.76 ± 0.064
SAGGSAGGSAGGKTLKLTLTLKVEVKETVTTTTADGTTEERPVKEVEVKLTATIDLSDLSAGGSAGGSAGGS [r10_355_TrROS_Hall] | 3.04 ± 0.24
SAGGGPAPVVVTVEYDPETREQRVTARAGGGGVVFELSLPLGDKTVTVKVIPVGDKVLLEVEWEVKGSAGGS [r16_631_TrMRF] | 2.95 ± 0.16
SAGRFIRIRFKDPGMSMDNLVKEIKEELGIPPDHKVTIDWEPDPNGGYEITIQVDDPQVRDKILEALRSAGG [r19_215_TrROS] | 3.46 ± 0.1
SAGGSAGGSGSSLVSETVEEGPGLTTRTLTYRLPGAPGVLLERTVTYDPEGNELATSLTVVPESAGGSAGGS [r12_62_JUSTAS] | 0.0552 ± 0.052
SAGGSAGGSAGGLGLDLPVFPVKTTTSSSTVPLPNGQTVTVTTTTTTFPGSSSTTTTTTGSAGGSAGGSAGG [r17_59_JUSTAS] | 1.02 ± 0.031
SAGGSAGGSAGGSMTLVIKNGIGYTVIKIKVEYDEETGEFSFELEIETKPVPPNYPVPASAGGSAGGSAGGS [r4_215_TrMRF] | 3.02 ± 0.33
SAGGAKELFEAIPGAEAEYDPETGTLRVRFEFPDYTVLVEIPTDKETGEVLGVRVYVIDKDGVPHEIDLSAG [r5_367_TrMRF] | 3.26 ± 0.24
SAGGSAGGSELNIEKIVVLDYDPETGLAYVKIFYGDGEVKEFKVKSLEELKEKFPDVEILEKGSAGGSAGGS [r12_403_TrMRF] | 3.64 ± 0.12
SAGMMKRIVVTARFPADEMTLDEFVELILAKLPGVKPVRVEILSVRPRPDGSYEVTVLLLVEAPPDVDASAG [r5_682_TrMRF] | 4.38 ± 0.071
SAGLGIWRDPDMWKLEFNLLLPNGYVYKVEVTVTPDGIDVSIEPVPIPPVPTADSPEDAKEYQKQNENQSAG [r5_272_TrROS] | 1.06 ± 0.13
SAGGAIELPDLGEEEAIETLKKLAEEGIKNPVGVIRTPTKPLVITYDPETNTVTITLPDGTILTLVVSAGGS [r16_481_JUSTAS] | 0.755 ± 0.091
SAKKKKPLPKIKKIKITITLKDGTKIEMEITKVEVLEDGTVKIKMKMKVIDKKTKKKYEFEIEIIIKLKSAG [r14_591_TrROS_Hall] | 2.96 ± 0.27
SAGGPSIPGEKIRELLEKGYSLEEIVEFLEKENIPIARIEGVEPHPNSITIVFYNPETGEKITAVIGSAGGS [r8_179_TrMRF] | 2.02 ± 0.058
SAGGSAGGSARIYVTLPDGTVLEVEFEGEEEAERVAEEIEAELKEKGIEPKSITIEPVSPEEGSAGGSAGGS [r12_301_JUSTAS] | 0.723 ± 0.053
SASEDGYVVVEITIPIEIYMPMYKYSPDGKWKWEPHQMEIKLEITVQVKKDPEAADRAREFADRILDYISAG [r14_830_TrROS] | 2.7 ± 0.13
SAGGSAPPNIVRPYVRPFLIYNPNGEPAALGELVIFEAPEGRLILLRLRSLENGEELELPFLYPGESAGGSA [r15_819_TrMRF] | 2.71 ± 0.071

Test: folding stability dG unfold from chymotrypsin proteolysis; higher = more stable
Method in brief: as §1

Sequence | folding stability dG unfold [kcal/mol]
SAGGPFYLRIKIVDEDGKEITYMFPAPADEAEEEIEELLPGWPLKIDEVERFPGEPGYIMVTIKIPPNSAGG [r13_832_TrROS] | 2.07 ± 0.17
SRLTVTSEVDPNGNSSTSTITYYDPSTGQPYTLTVTITKLPDGTYKVTITFPSNSTTTTFTLAPDETINLSA [r9_1220_JUSTAS] | 3.27 ± 0.055
SAGGMTRKLTFLGDIDKPVGLDGDIEIRPNPETGGFTIRVPPGVRIEAEVERLTDPPLALVTVTFLESAGGS [r16_122_TrMRF] | 1.03 ± 0.074
SPLERLLRAILNAPADTTIVVPLPDDLVAVIRIEPATTELDGVPYRFLVARIEIRNPDGVLLGELTLVLPLS [r1_386_TrMRF] | 5.78 ± 0.091
SMEIRIKEVNEDGYLVIEIRVLSEDGKELTPEEVEELAEEIAAELKEKFPDVKVTVERLEDGTVRIVVEPSA [r9_485_TrROS_Hall] | 2.65 ± 0.15
SAGGSAGGSAGGGSIVIENPEKGLTLTYDPATGNVTITFPGGERKVSPVGSIEKAKELLSAGGSAGGSAGGS [r10_849_JUSTAS] | 1.15 ± 0.028
SAGGMKVEIIRKDGKKVTLEGMTLEELLALLPEGEEYVIKVEVTVVDEKTKKKETVELTFTVPVEDLSAGGS [r16_806_TrROS_Hall] | 2.47 ± 0.053
SAGGMPVVIEIHVPKDKEEELARLIRRLLSELGAEVRVERFEDGIKVTAVLPDGTVIELHIVDDEKASAGGS [r16_406_TrMRF] | 4.03 ± 0.17
SGPGPEKIKEIIKKLFPNLKIESIEEDPATGKYTIKFPNGYTVEVEVPPDGTVTLTVKTPNSTTTFTVPESA [r9_304_JUSTAS] | 2.32 ± 0.031
SAGGGMTVTRTIYLPNMTEEEKKALAEEIAEEVREELEKRGYPVKEITVDVKFIPGKGIVIVTVTLKLSAGG [r13_212_JUSTAS] | 3.64 ± 0.089
SAGGPNWMQMEIWLPPGNPEKIEKIIRDKGWKVEDIKVKEVNPNNGWMRVTIYMPGPWPMDEIKEAVRSAGG [r13_725_TrROS] | 3.6 ± 0.16
SAGGSAIEPGQKVLVLFPEDGGLATLTFDPTTRTVEIEVGGERRTYPVDSLQDVLDELGAEVLSTDSAGGSA [r15_500_TrMRF] | 1.74 ± 0.037
SAMYLIKITIYNEETGEKIAELTLEVEEEDLEELLEEIRKKLNLPPGAKIKVEIVPLEPVVLPDGKLLKSAG [r14_297_TrROS_Hall] | 2.54 ± 0.2
SAGGSAMSEEALAEAERLVAERRAALEAAGVPVTVERVEVTVTVDTEVPTTNITVDLDVRLPDAPESAGGSA [r2_94_JUSTAS] | 1.38 ± 0.024
SAGGKLAELKEILKKLGLPKIESIEEDPETGVLRFKASSSKPILVTVPVRSLGDGSRPIEVEIKSTNISAGG [r13_410_JUSTAS] | 0.448 ± 0.32
SPNFERYEHTIEIELPNGRRIKIDVEMYRPPDGNPWARIKIEVEDNNGEPKKKDIWMPMNDAEKAIEDLLSA [r9_189_TrROS] | 1.85 ± 0.093
SAGGMTEEEAKELAKELAEKYAEEKGIEEIELKIESVEKEGDKFTVKVKLTFPNEEKTITITIPKDLISAGG [r13_611_JUSTAS] | 3.21 ± 0.19
SAGGSAKITVEVVVRSLEELEALVKALAPPGMEVEVKIVSVERRTVEVNGEKREVLVVRVEIEVKPSAGGSA [r15_95_TrROS_Hall] | 3.09 ± 0.17
SAGGSAGGSAMTIEVTVPPEVPEEEAAERVARALRELFPIPEIKVSVERRPDGIIKVTVEGGSAGGSAGGSA [r18_1_TrMRF] | 0.902 ± 0.052
SAGGMIEIIPNPPIIIVRDASTNEISVYNIDAPPGSITRVELTSDGSILIYNPATGKVLVLPKSDIKSAGGS [r16_410_TrMRF] | 1.74 ± 0.071
SAGGSAGGSAPPLKIVIRIEFPDPNGKKQEYEIPADYPLEQVKDNAEEPFPGAKIENIEVVSAGGSAGGSAG [r3_60_TrROS] | 1.33 ± 0.071
